Measurements as given in article doi:10.1101/2022.01.19.476892 (bioRxiv, 2022).

B1: C022 (antibody, V domains shown)
VH: QVQLQESGPGLVKPSETLSVTCTVSGGSISSSRYYWGWIRQPPGKGLEWIGSIYYSGSTYYNPSLKSRVTISVDTSKNQFSLKLSSVTAADTAVYYCARHAAAYYDRSGYYFIEYFQHWGQGTLVTVSS
VL: DIQMTQSPSTLSASVGDSVTITCRASQSISSWLAWYQQKPGKAPKLLIYKASSLESGVPSRFSGSGSGTEFTLTISSLQPDDFATYYCQQYNNYRYTFGQGTKLEIK
B2: C118 (antibody, V domains shown)
VH: QVQLVESGGGVVQPGRSLRLSCAASGFTFSNYAMHWVRQAPGKGLEWVAVISYDGSNKYYADSVKGRFTISRDNSKNTLYLQMNSLRAEDTAIYYCASGYTGYDYFVRGDYYGLDVWGQGTTVTVSS
VL: QPVLTQSPSASASLGASVKLTCTLSSGHSSYAIAWHQQQPEKGPRYLMKLNTDGSHSKGDGIPDRFSGSSSGAERYLTISSLQSEDEADYYCQTWGTGILVFGGGTKLTVL
B3: H014 (antibody, V domains shown)
VH: EVQLVQSGAEVKKPGATVKISCKVSGYSFSNYYIHWVKQAPGKSLEWIGYIDPFNGGTSDNLKFKGAATLTADTSTDTAYMELSSLRSEDTAVYYCARSEYDPYYVMDYWGQGTTVTVSS
VL: IVLTQSPFQSVSPKEKVTITCRASQSISSNLHWYQQKPDQSPKLLIKYASQSISGIPSRFSGSGSGTDFTLTINSLEAEDFGIYFCQQTNFWPYIFGQGTKLEIL
B4: VacW-209 (antibody, V domains shown)
VH: QVQLVESGGGVVQPGRSLRLSCAASGFTFSSIAMHWVRQAPGKGLEWVAVMSFDGSIKYYGDSVKGRFTISRDNSKSTLYLQMNSLRAEDTAVYYCARGVQGYYDRSGYYNLDYNYGMDVWGQGTTVTVSS
VL: QSVLTQPPSVSGAPGQRVTISCTGSSSNIGAGYDVHWYQQLPGTAPKLLIYGNSNRPSGVPDRFSGSKSGTSASLAITGLQAEDEADYYCQSYDSSLSGWVFGGGTKLTVL
B5: EY6A (antibody, V domains shown)
VH: EVQLVESGGGVVQPGRSLRLSCAASAFTFSSYDMHWVRQAPGKGLEWVAVISYDGSNKYYADSVKGRFTISRDNSKNTLYLQMNSLRAEDTAVYYCAKDGGKLWVYYFDYWGQGTLVTVSS
VL: not shown
B6: S2X35 (antibody, V domains shown)
VH: QVQLVQSGAEVKKPGASVKVSCKASGYTFTNYGISWVRQAPGQGLEWMGWISAYKGNTNYAQKLQGRVTMTTDTSTSTAYMELRSLRSDDTAVYYCARPDYQVLGYDFWIGYYGMDVWGQGTTVIVSS
VL: QSVLTQPPSVSGAPGQRVTISCTGSSSNIGAGYDVHWYQQLPGTAPKLLIYGNTNRPSGVPDRFSGSKSGTSASLAITGLQAEDEADYYCQSYDSSLSGSEVVFGGGTKLTVL

Tests used:
[1] = target: T1, SARS-CoV-2 WT RBD protein (residues 319-541) (SARS-CoV-2, UniProt P0DTC2); assay: SPR
RBD protein of SARS-CoV [2] = target: T2, RBD protein of SARS-CoV (Severe acute respiratory syndrome …, UniProt P59594); assay: cell-based or functional assay
RBD protein of SARS-CoV [3] = target: T2, RBD protein of SARS-CoV; assay: SPR
[4] = target: T1, SARS-CoV-2 WT RBD protein (residues …); assay: ELISA

| Binder | binding result [1] | other results |
| --- | --- | --- |
| B1 | binds | – |
| B2 | binds | – |
| B3 | binds | – |
| B4 | – | IC50 of neutralisation of SARS-CoV pseudovirus (HEK-293T-hACE2 cells) (RBD protein of SARS-CoV [2]): 0.141 µg/mL; Kd (RBD protein of SARS-CoV [3]): 540 pM; binding result [4]: binds |
| B5 | binds | – |
| B6 | binds | – |
